Experiments:
[1] = system: PC3 (prostate tumor cell line; CD44 +ve); test: tumor cell migration, wound closure assay, PC3; format: cell-based; conditions: for effect on tumor cell migration: PC3
Description: (§1) In these experiments, the effect of recombinant FKBP-L on tumor cell migration was assessed. The in vitro migration assay used in these studies is a modified version of the method described by Ashton et al (1999) see supra. PC3, MDA231, and HT29 tumor cells were plated into individual chambers on a glass slide and grown to 90% confluence overnight. The medium was removed and the monolayers wounded. The monolayer was re-supplemented with fresh medium and the required volume of His-tagged recombinant FKBP-L protein (SEQ ID NO: 1) was added to give the final concentrations shown. The monolayers were incubated for 24 hours and then fixed in 4% PBS buffered paraformaldehyde.
The extent of “wound” closure was blindly assessed microscopically by an independent investigator and quantified using a calibrated eyepiece graticule (1 mm/100 μm graduation) at 20× magnification (Olympus BX 50). The extent of closure in the FKBP-L treated slides was compared to time matched sham-treated controls and the percent inhibition of wound closure compared to time matched controls calculated.
The in vitro migration assay used in these studies is a modified version of the method described by Ashton et al. (1999) see supra. PC3 (prostate tumor cell line; CD44 positive; CD44 +ve), MDA231 (breast tumor cell line; CD44 +ve), HT29 (Colorectal tumor cell line; CD44 +ve), MCF-7 (breast tumor cell line; CD44 negative; CD44 −ve) and DU145 (prostate tumor cell line; CD44 −ve) were plated into individual chambers on a glass slide and grown to 90% confluence overnight. The medium was removed and the monolayers wounded. […] The monolayers were incubated for 24 h and then fixed in 4% PBS buffered paraformaldehyde.
The extent of “wound” closure was blindly assessed microscopically by an independent investigator and quantified using a calibrated eyepiece graticule (1 mm/100 μm graduation) at 20× magnification (Olympus BX 50). The extent of closure in the FKBP-L treated slides was compared to time matched sham treated controls and the % inhibition of wound closure compared to time matched controls calculated.
PC3 cells were transfected for 72 h with either sicontrol non-targeting siRNA (SCR siRNA) (Dharmacon, Cat #D-001210-01-05) or CD44 targeted siRNA (CD44siRNA) (Dharmacon, Cat #009999). Briefly, 1.2×10^6 PC3 cells were seeded into two P90 dishes and incubated at 37° C. for 24 h. To transfect, 150 μl of the either sicontrol non-targeting siRNA or CD44 targeting siRNA (2 μM) was added to 450 μl of serum free medium (Tube 1). […] The monolayer was fixed after a further 24 h and the extent of wound closure was blindly assessed using a calibrated graticule. Percent inhibition of wound closure in FKBP-L-treated monolayers compared to untreated monolayers was calculated. […]

[2] = system: MDA231 (breast tumor cell line; CD44 +ve); test: tumor cell migration, wound closure assay, MDA231; format: cell-based
Description: as §1
The extent of “wound” closure was blindly assessed microscopically by an independent investigator and quantified using a calibrated eyepiece graticule (1 mm/100 μm graduation) at 20× magnification (Olympus BX 50). The extent of closure in the FKBP-L treated slides was compared to time matched sham-treated controls and the percent inhibition of wound closure compared to time matched controls calculated. […]
The extent of “wound” closure was blindly assessed microscopically by an independent investigator and quantified using a calibrated eyepiece graticule (1 mm/100 μm graduation) at 20× magnification (Olympus BX 50). […]

[3] = system: bFGF-induced vessels in subcutaneously implanted polyether sponges; test: mouse sponge assay of angiogenesis in vivo; set-up: species or system C57 black mice; conditions: for reduction in vessel number versus bFGF alone: day 21
Description: In these experiments, polyether sponges were subcutaneously implanted in C57 black mice and injected on alternate days with 10 ng bovine fibroblast growth factor (bFGF) or 10 ng bFGF+5 μg full length His-tagged recombinant FKBP-L polypeptide (SEQ ID NO: 1). After 14 days of treatment, sponges were harvested, sectioned and stained with heamatoxylin and eosin.
This experiment evalulated the ability of the FKBP-L 24mer to inhibit angiogenesis using the mouse sponge assay. Polyether sponges were subcutaneously implanted in C57 black mice on day 0 and injected on alternate days with (a) 10 ng bFGF control (3 mice) (b) 10 ng bovine fibroblast growth factor (bFGF)+5 μg full-length his-tagged recombinant FKBPL (equivalent to 3.2×10^−6 M in vitro) (3 mice) (c) 10 ng bFGF+0.35 μg FKBPL 24mer (molar equivalent of 5 μg full-length recombinant FKBPL) (3 mice) or (d) 0.11 ng FKBPL 24mer (equivalent to 10^−9 M in vitro) (3 mice).
All mice were sacrificed on day 21. Sponges were removed, fixed and paraffin embedded. Five micron sections were stained with haematoxylin and eosin. Vessels were blindly counted by 3 independent assessors using ×40 magnification in 10 fields per section. The average count per sponge/mouse was then plotted for each assessor.

Row | Molecule | effect on tumor cell migration ([1]; 10^−14-10^−7 M, 24 h) | effect on tumor cell migration ([2]; MDA-231, 10^−14-10^−7 M, 24 h) | reduction in vessel number versus bFGF alone ([3]; 10 ng bFGF + 0.35 μg on alternate days) | reduction in vessel number versus bFGF alone ([3]; lowest dose (0.11 ng, equivalent to 10^−9 M in vitro) on alternate days) | effect on tumor cell migration ([1]; 24 hours) | effect on migration of CD44 siRNA treated cells ([1]; PC3 transfected with CD44 targeted siRNA, 1500 ng/ml, 24 h) | inhibition of migration (wound closure) compared to untreated monolayers ([1]; PC3 transfected with non-targeting SCR siRNA, 1500 ng/ml, 24 h) | effect on tumor cell migration ([2]; MDA231, 24 hours) | reduction in vessel number versus bFGF alone ([3]; 10 ng bFGF + 5 μg on alternate days) | vessel counts versus bFGF alone ([3]; 10 ng bFGF+5 μg on alternate days, 14 days, p=0.0008)
1 | H-QIRQQPRDPPTETLELEVSPDPAS-OH [FKBP-L 24mer] | can inhibit | can inhibit | 80% | 70% | – | – | – | – | – | –
2 | full length recombinant FKBP-L: recombinant full length his-tagged FKBP-L protein (SEQ ID NO: 1) expressed in BL21 (DE3) (protein, listed as Homo sapiens, His tag) MRGSHHHHHHGMASMTGGQQMGRDLYDDDDKDRWGSMETPPVNTIGEKDTSQPQQEWEKNLRENLDSVIQIRQQPRDPPTETLELEVSPDPASQILEHTQGAEKLVAELEGDSHKSHGSTSQMPEALQASDLWYCPDGSFVKKIVIRGHGLDKPKLGSCCRVLALGFPFGSGPPEGWTELTMGVGPWREETWGELIEKCLESMCQGEEAELQLPGHTGPPVGLTLASFTQGRDSWELETSEKEALAREERARGTELFRAGNPEGAARCYGRALRLLLTLPPPGPPERTVLHANLAACQLLLGQPQLAAQSCDRVLEREPGHLKALYRRGVAQAALGNLEKATADLKKVLAIDPKNRAAQEELGKVVIQGKNQDAGLAQGLRKMFG | – | – | – | – | inhibits tumor cell migration in a dose-dependent manner | no effect | 21.7% | inhibits tumor cell migration in a dose-dependent manner | 50% | significantly fewer vessels
